B1: KCNA3 (parent)
chain: YQSGGRIRRPVNVPIDIFSEEIRF
B2: TSN (parent)
chain: AFVVYLETETLVTREAVTEILGIE

Variants of: B1
Assay: protein stability index of a GFP-peptide fusion (GPS, HEK-293T) (PSI 1-6); higher = more stable
Details: c terminus: a fixed tail appended
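Further: lentivirally expressed fusions sorted by FACS into six bins by GFP to DsRed ratio, PSI derived from sequencing read proportions per bin multiplied by bin number.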

Variant | protein stability index
R23D | 3
R23N | 1.77
R23W | 1.05
R23A | 2.29
R23Q | 1.72
R23F | 1.53
R23H | 2.37
R6S | 2.08
R6N | 2.11
R6V | 1.95
R6L | 1.31
R6F | 1.65
P14G | 1.9
P14W | 2.98
P14T | 1.81
I17D | 2.34
I17F | 1.76
I17T | 1.97
I17Q | 1.89
I17C | 2.48
I17A | 2.85
I17P | 3.32

Variant | protein stability index
F18A | 2.68
F18C | 2.36
F18M | 2.35
F18T | 2.4
F18L | 2.63
V13M | 2.25
V13S | 2.11
V13Y | 1.69
V13T | 1.82
V13A | 1.88
V13W | 2.01
N12D | 1.8
N12G | 1.83
N12Y | 1.08
N12T | 2.17
N12P | 2.11
N12V | 1.41
N12H | 3.14
N12W | 2.21
F24N | 3.24
F24T | 2.52
F24L | 2.37

Variant | protein stability index
F24G | 1.62
F24V | 2.42
F24C | 2.32
I7A | 2.83
I7G | 2.41
I7P | 2.51
I7D | 2.92
I7T | 1.91
P10W | 2.7
P10C | 2.03
P10Y | 1.76
P10E | 2.02
P10I | 1.78
P10L | 1.6
P10A | 2.31
P10S | 2.43
S3I | 1.58
S3V | 2.01
S3F | 1.64
S3M | 1.56
S3C | 1.46
S3D | 2.41

Variant | protein stability index
S3E | 2.93
S3G | 1.81
S3Y | 2.21
R9C | 2.35
R9K | 1.78
R9S | 2.06
R9V | 1.41
R9D | 1.62
R9T | 2.48
E20M | 1.96
E20A | 2.06
Y1L | 2.08
Y1T | 2.55
Y1V | 2.58
I15C | 2.13
I15P | 2.03
I15K | 2.19
I15R | 2.41
I15G | 2.4
I15Q | 2.56
E21R | 2.38
E21M | 1.87

Variant | protein stability index
E21Y | 2.56
E21S | 1.48
E21I | 1.6
E21Q | 2.75
S19T | 2.6
S19I | 1.85
S19P | 1.73
S19F | 1.51
S19Q | 1.68
R8H | 4.19
R8T | 2.07
R8K | 2.47
Q2E | 2.33
Q2H | 3.93
Q2T | 2.47
Q2D | 2.74
Q2M | 2.04
Q2N | 2.52
Q2G | 2.7
D16W | 1.87
G5M | 1.37
G5T | 2.54

Variant | protein stability index
G5I | 1.94
G5L | 2.09
G5W | 3.41
G5K | 2.2
G5F | 1.68
G5R | 2.08
V11I | 1.7
V11S | 1.74
V11L | 1.44
V11Y | 2.18
V11P | 1.83
V11D | 1.69
G4E | 2.73
G4N | 1.92
G4Y | 1.79
G4T | 2.28
G4V | 2.05
G4L | 2.31
G4A | 1.69
G4H | 1.97
I22D | 2.5
I22G | 1.68

Variants of: B2
Assay: as above
Details: c terminus: a fixed tail appended

Variant | protein stability index
E7W | 3.69
E7P | 2.19
E7N | 3.66
E7I | 3.57
E7H | 3.41
E7L | 2.42
E7G | 2.77
E7C | 1.79
E7A | 3.23
E7T | 2.4
E19L | 3.65
E19W | 2.4
E19C | 3.83
E19P | 2.44
E19Q | 3.48
E19K | 3.64
E19R | 3.43
E19I | 2.11
E19H | 2.31
E19S | 1.96
V3N | 2.37
V3H | 2.3
V3Q | 2.75
V3R | 1.34
V3L | 2.35
V3T | 3.95

Variant | protein stability index
V3S | 1.15
V3M | 1.97
V3D | 2.37
V3K | 1.81
F2H | 1.48
F2S | 2.36
F2M | 2.88
F2W | 1.84
F2P | 3.41
F2D | 3.68
F2V | 1
F2R | 1.72
F2E | 2.49
F2N | 2.45
F2T | 2.74
F2K | 1.78
F2Q | 1.86
T8N | 3.62
T8D | 1.94
T8R | 4.36
T8Y | 1.7
T8C | 2.57
T8Q | 2.06
T8V | 2.41
T8H | 3.17
T8E | 1.4

Variant | protein stability index
T8I | 2.34
Y5G | 2.5
Y5I | 4.04
Y5A | 2
Y5P | 2.87
Y5H | 1.59
Y5S | 1.77
Y5L | 2.45
Y5E | 2.73
Y5C | 2.94
Y5N | 2.13
Y5T | 3.32
G22S | 1.86
G22N | 2.33
G22H | 3.32
G22A | 3.71
G22R | 3.49
G22Y | 3.71
V4Y | 2.61
V4W | 2.92
V4C | 2.2
V4S | 1.57
V4N | 2.09
I23Y | 3.36
I23W | 1.79
I23F | 2.36

Variant | protein stability index
I23D | 1.42
I23Q | 1.69
I23K | 1.55
I23E | 2.03
I23L | 2.26
E24C | 3.31
E24W | 1.53
E24D | 2.34
E24A | 3.43
E24I | 3.19
E24V | 2.23
V12I | 3.19
V12N | 2.9
V12D | 4.41
V12P | 1.74
V12H | 2.21
V12E | 2.35
V12G | 2.73
V12L | 2.56
V12R | 2.51
L21N | 2.64
L21P | 2.34
L21S | 2.04
L21Y | 2.1
L21G | 2.44
L21A | 3.48

Variant | protein stability index
L21E | 1.97
L21I | 2.57
L21W | 2.52
T13C | 2.48
T13K | 1.63
T13H | 2.05
T13F | 3.68
T13N | 1.72
T13V | 2.31
T13G | 2.1
T18A | 2.74
T18H | 4.07
T18F | 2.48
T18G | 1.49
T18E | 3.46
T18Q | 3.84
A1F | 3.77
A1R | 4.12
A1K | 2.54
A1P | 2.44
A1M | 2.61
A1N | 3.19
A1H | 2.54
A1E | 3.39
A1I | 3.49
A16Y | 2.47

Variant | protein stability index
A16W | 3.37
A16Q | 2.67
A16E | 2.77
A16T | 2.66
A16M | 2.01
A16V | 3.75
L6N | 2.69
L6C | 2.38
L6K | 2.03
L6D | 2
L6S | 1.83
L6V | 4.67
L6Y | 2.2
L6I | 3.08
L6F | 3.12
L6H | 1.37
L6T | 2.05
L6A | 1.34
I20L | 4.11
I20H | 2.68
I20K | 2.91
I20F | 3.74
I20R | 3.48
I20Q | 5.44
I20E | 1.28
I20N | 1.98

Variant | protein stability index
I20D | 1.6
I20M | 3.81
I20A | 2.66
E9A | 2.65
E9S | 2.9
E9R | 1.65
E9G | 3.65
E9C | 2.38
E9M | 2.42
V17Y | 3.6
V17Q | 3.14
V17G | 2.21
V17E | 1.4
V17H | 2.62
V17A | 2.01
V17P | 3.55
R14F | 2.36
R14E | 1.43
R14C | 3.25
R14P | 2.84
R14H | 3.6
R14N | 4.51
R14D | 2.33
R14Y | 2.01
L11A | 2.69
L11V | 2.74

Variant | protein stability index
L11Q | 3.4
L11M | 3.03
L11N | 2.14
L11S | 2.48
L11H | 3.08
L11D | 2.34
E15M | 3.51
E15S | 2.65
E15D | 3.69
E15V | 3.11
E15L | 2.17
T10M | 1.36
T10F | 3.32
T10H | 2.83
T10R | 2.22
T10S | 2.76
T10C | 2.82
T10E | 1.39
T10A | 1.65
T10D | 2.79

From the supplement of paper PMC10567573
